According to patent US20230136228A1 (LAMKAP BIO ALPHA, published 2023):
Substitutions are numbered along the chain they refer to.

Tests used:
[1] = target: T1, human CEACAM5 (carcinoembryonic antigen, CEA), cell surface (human, UniProt P06731 35-685); assay: cell-based or functional assay
T1 sequence (looked up): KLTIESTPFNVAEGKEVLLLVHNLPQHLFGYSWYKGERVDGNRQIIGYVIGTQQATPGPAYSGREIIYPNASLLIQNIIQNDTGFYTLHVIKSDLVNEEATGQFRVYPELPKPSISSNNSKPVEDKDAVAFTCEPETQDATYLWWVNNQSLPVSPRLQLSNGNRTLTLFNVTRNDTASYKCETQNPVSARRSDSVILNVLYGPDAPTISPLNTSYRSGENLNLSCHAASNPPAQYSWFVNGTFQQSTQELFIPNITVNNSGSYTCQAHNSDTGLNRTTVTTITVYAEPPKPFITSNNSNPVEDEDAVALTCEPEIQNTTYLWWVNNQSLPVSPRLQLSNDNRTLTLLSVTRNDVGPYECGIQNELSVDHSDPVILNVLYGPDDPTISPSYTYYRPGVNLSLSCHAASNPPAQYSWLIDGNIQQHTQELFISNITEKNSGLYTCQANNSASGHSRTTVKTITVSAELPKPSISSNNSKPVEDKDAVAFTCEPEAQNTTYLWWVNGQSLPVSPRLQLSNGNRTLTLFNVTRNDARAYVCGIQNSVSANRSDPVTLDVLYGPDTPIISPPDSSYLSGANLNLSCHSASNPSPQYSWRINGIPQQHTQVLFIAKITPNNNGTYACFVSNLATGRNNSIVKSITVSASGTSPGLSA

[2] = target: T2, shed soluble CEACAM5 (sCEA) (human, UniProt P06731 35-685, limits assumed); assay: cell-based or functional assay
T2 sequence (looked up): T1 sequence (looked up)

[3] = target: T1, human CEACAM5 (carcinoembryonic …); assay: flow cytometry, MKN-45 cells
From the text: Examples of cells that can be used include CEACAM5-positive cell lines such as the gastric adenocarcinoma cell line MKN45 (expressing 155′000 CEACAM5 molecules per cell), or the pancreatic adenocarcinoma cell line HPAF-II (expressing 108′000 CEACAM5 molecules per cell) or the colorectal adenocarcinoma cell line LS174T (expressing 26′000 CEACAM5 molecules per cell) and CEACAM5-negative cell lines, such as the lung carcinoma cell line A549 and the MKN45 CEACAM5-knock out cell line generated by CRISPR-CAS9 methodology. Cell staining and binding assessment can be performed as described above. Binding of the bsAb of the invention at 200 nM, 1000 nM and 5000 nM is 40% and higher compared to binding of TCB2014 (see Table 4 and also FIGS. 11 and 14).

human CEACAM1 = target: T3, human CEACAM1 (human, UniProt P13688 35-526); assay: flow cytometry, MFI on transfected PEAK cells divided by MFI on WT PEAK cells
T3 construct: whole, on cells
T3 sequence (looked up): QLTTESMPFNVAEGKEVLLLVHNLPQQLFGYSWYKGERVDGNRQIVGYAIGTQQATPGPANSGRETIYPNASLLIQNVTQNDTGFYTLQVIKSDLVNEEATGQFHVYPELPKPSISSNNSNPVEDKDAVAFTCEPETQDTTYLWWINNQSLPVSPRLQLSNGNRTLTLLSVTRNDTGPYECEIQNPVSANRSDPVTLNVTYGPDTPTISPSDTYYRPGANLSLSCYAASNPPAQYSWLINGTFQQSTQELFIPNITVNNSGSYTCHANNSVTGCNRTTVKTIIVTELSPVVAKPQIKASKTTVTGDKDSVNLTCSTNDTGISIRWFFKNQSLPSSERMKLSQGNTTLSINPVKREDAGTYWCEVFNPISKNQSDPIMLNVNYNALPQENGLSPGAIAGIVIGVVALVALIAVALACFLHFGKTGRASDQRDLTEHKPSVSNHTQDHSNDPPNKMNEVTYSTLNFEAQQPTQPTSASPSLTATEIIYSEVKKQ
Procedure: Similarly, vectors encoding the full-length version of cyno CEACAM 5 and 6 are also used to express these proteins at the surface of PEAK and/or CHO cells. Non-transfected PEAK and/or CHO cells are used as negative control. Cells are harvested, counted, checked for viability and resuspended at 3×10⁶ cells/ml in FACS buffer (PBS 2% BSA, 0.1% NaN₃). 100 μl of the cell suspension are distributed in V-bottom 96-well plates (3×10⁵ cells/well). The supernatant is removed by centrifugation 3 minutes at 4° C., 1300 rpm and the cells incubated for 15 minutes at 4° C. with increasing concentrations of the antibody according to the invention. The antibodies carrying the anti-CEACAM5 arms to test are diluted in FACS buffer and the concentration range is 30 pM-500 nM. Cells are washed twice with cold FACS buffer and re-incubated for further 15 minutes at 4° C. with a compatible anti-human IgG secondary antibody. Cells are washed twice with cold FACS buffer and resuspended in 300 μl FACS buffer with 1:1500-diluted TOPRO-3 (Invitrogen). Fluorescence is measured using a FACSCalibur™ (BD Biosciences) or a Cytoflex Platform (Beckman Coulter). Dose-response binding curves are fitted using GraphPad Prism8 software. In the same manner, CEACAM1, CEACAM6 and other CEACAMs can be characterized.
For the bispecific antibodies AB17L3-1/N, AB71L3-1/N, AB72L3-1/N, AB73L3-1/N the MFI measured for binding to CEACAM5 transfected cells was found between 29000 and 41000 (Table 2). In contrast MFI found by using PEAK cells transfected with CEACAM 1,3,4,6,8 were found below 1000 with the only exception of a strong signal for AB72L3-1/N on CEACAM8 transfected cells. When MFI values obtained on transfected cells expressing any given CEACAM are divided by the values obtained on WT PEAK cells, “factors to PEAK WT” can be calculated (Table 3). With the exception of AB72L3-1/N, the antibodies of the invention are all specific to CEACAM5, as the “factor to PEAK WT” values are all below 2.0.

B1: AB72L3-1/N (bispecific antibody, human IgG1, kappa, lambda, L234A L235A)
heavy: EVQLVESGGGLVQPGGSLKLSCAASGFTFNTYAMNWVRQAPGKGLEWVGRIRSKYNNYATYYADSVKDRFTISRDDSKNTAYLQMNSLKTEDTAVYYCVRHGNFGNSYVSWFAYWGQGTLVTVSSASTKGPSVFPLAPSSKSTSGGTAALGCLVKDYFPEPVTVSWNSGALTSGVHTFPAVLQSSGLYSLSSVVTVPSSSLGTQTYICNVNHKPSNTKVDKRVEPKSCDKTHTCPPCPAPEAAGGPSVFLFPPKPKDTLMISRTPEVTCVVVDVSHEDPEVKFNWYVDGVEVHNAKTKPREEQYNSTYRVVSVLTVLHQDWLNGKEYKCKVSNKALAAPIEKTISKAKGQPREPQVYTLPPSREEMTKNQVSLTCLVKGFYPSDIAVEWESNGQPENNYKTTPPVLDSDGSFFLYSKLTVDKSRWQQGNVFSCSVMHEALHNHYTQKSLSLSPG
light 1: EIVLTQSPATLSLSPGERATLSCRASQSVNSNLNWYQQKPGQAPRLLIYHSTNRPRGIPARFSGSGSGTDFTLTISSLEPEDFAVYYCQQFDYFKEYNTFGQGTKVEIKRTVAAPSVFIFPPSDEQLKSGTASVVCLLNNFYPREAKVQWKVDNALQSGNSQESVTEQDSKDSTYSLSSTLTLSKADYEKHKVYACEVTHQGLSSPVTKSFNRGEC
light 2: QTVVTQEPSLTVSPGGTVTLTCRSSTGAVTTSNYANWFQQKPGQAPRGLIGGTNKRAPGTPARFSGSLLGGKAALTLSGAQPEDEAEYYCALWYKQRWVFGGGTKLTVLGQPKAAPSVTLFPPSSEELQANKATLVCLISDFYPGAVTVAWKADSSPVKAGVETTTPSKQSNNKYAASSYLSLTPEQWKSHRSYSCQVTHEGSTVEKTVAPTECS
notes: Kappa-lambda body, lead optimization wave 2
Killing EC50, HPAFII cells (TDCC, LDH release) [1]: 0.12 nM | Killing EC50, LS174T cells (TDCC, LDH release) [1]: 0.11 nM | Killing EC50, MKN45 cells (TDCC, LDH release) [1]: 0.02 nM | EC50 fold change compared to no shed CEA condition, sCEA 0 µg/mL (reference) [2]: 1 fold | EC50 fold change compared to no shed CEA condition, sCEA 0.2 µg/mL [2]: 1.2 fold | EC50 fold change compared to no shed CEA condition, sCEA 1 µg/mL [2]: 2.4 fold | EC50 fold change compared to no shed CEA condition, sCEA 5 µg/mL [2]: 7.3 fold | EC50 [3]: 24.5 nM | Top MFI value [3]: 963000 MFI | binding higher than TCB2014 (at 200 nM, 1000 nM and 5000 nM) [3]: ≥ 40% | Factor to PEAK WT (human CEACAM1): 1.4 fold

B2: AB73L3-1/N (bispecific antibody, human IgG1, kappa, lambda, L234A L235A)
heavy: B1 heavy
light 1: B1 light 1 with T52N, R56H, K95R
light 2: B1 light 2
notes: as for B1
Killing EC50, HPAFII cells (TDCC, LDH release) [1]: 0.13 nM | Killing EC50, LS174T cells (TDCC, LDH release) [1]: 0.06 nM | Killing EC50, MKN45 cells (TDCC, LDH release) [1]: 0.03 nM | EC50 fold change compared to no shed CEA condition, sCEA 0 µg/mL (reference) [2]: 1 fold | EC50 fold change compared to no shed CEA condition, sCEA 0.2 µg/mL [2]: 0.8 fold | EC50 fold change compared to no shed CEA condition, sCEA 1 µg/mL [2]: 2.9 fold | EC50 fold change compared to no shed CEA condition, sCEA 5 µg/mL [2]: 7.4 fold | EC50 [3]: 27.8 nM | Top MFI value [3]: 921000 MFI | binding higher than TCB2014 (at 200 nM, 1000 nM and 5000 nM) [3]: ≥ 40% | Factor to PEAK WT (human CEACAM1): 1.1 fold
